Measured values as given in publication PMC10699557, “A recombinant approach for stapled peptide discovery yields inhibitors of the RAD51 recombinase” (Chemical Science, 2023).

Biological target: HumRadA22
Experiment: fluorescence polarisation; competition: displacement of a fluorescently-labelled BRC4 repeat from HumRadA22; KD calculated from IC50; single titrations with three technical replicates at each point; mock (linear) samples with 500 uM TCEP

Kd: 39 nM
Binder: VNSSAFSGFCTASGKKLNVSCEALQKAVKLFSDIENIS (modifications not checked) [GB1-SP7-His8, mock-stapled (linear)]
